In PMC4725857:

Experiments:
[1] = target: BBK32-C (C-terminal region of BBK32, residues 206-354) (B. burgdorferi B31) (UniProt O50835); test: SPR; Biacore 3000, 25°C; BBK32 proteins immobilised by amine coupling on a C1 sensor chip; running buffer HBS-T-Ca2+ (20 mM HEPES pH 7.3, 140 mM NaCl, 0.005% Tween 20, 5 mM CaCl2), 10 μl/min; C1 0.2-100 nM, C1r enzyme 0.39-200 nM or 2.0-1000 nM series, 1:1 (Langmuir) kinetic fit; single C1 components at a fixed 50 nM
[2] = target: BBK32-FL (recombinant BBK32, residues 21 to 354) (B. burgdorferi B31) (UniProt O50835); test: as above
[3] = target: first component of human complement, C1 (C1 complex) (human) (UniProt P02745)
[4] = target: C1r enzyme (activated human complement C1r protease) (human)

| Molecule | Kd [1] [nM] | koff [1] [s⁻¹] | kon [1] [M⁻¹ s⁻¹] | Kd [2] [nM] | koff [2] [s⁻¹] | kon [2] [M⁻¹ s⁻¹] | IC50 of classical pathway inhibition, ELISA: C3b detection (immobilised human IgM, 1% human serum) [3] [nM] | IC50 of classical pathway inhibition, ELISA: C4b detection (immobilised human IgM, 1% human serum) [3] [nM] | IC50 of inhibition of CP-mediated hemolysis (CP50, sensitized sheep erythrocytes, 1% normal human serum) [3] [nM] | IC50 of C1r enzyme activity (cleavage of C1s proenzyme by 50 nM C1r enzyme, SDS-PAGE densitometry) [4] [nM] |
| --- | --- | --- | --- | --- | --- | --- | --- | --- | --- | --- |
| C1r enzyme (activated human complement C1r protease) | 32 | 0.00011 | 3900 | 15 | 0.00022 | 19000 | – | – | – | – |
| first component of human complement, C1 (C1 complex) (from UniProt P02745 23-245; P02746 28-253; P02747 29-245) | 2.3 | – | – | – | – | – | – | – | – | – |
| BBK32-FL (recombinant BBK32, residues 21 to 354) (natural protein) DLFIRYEMKEESPGLFDKGNSILETSEESIKKPMNKKGKGKIARKKGKSKVSRKEPYIHSLKRDSANKSNFLQKNVILEEESLKTELLKEQSETRKEKIQKQQDEYKGMTQGSLNSLSGESGELEEPIESNEIDLTIDSDLRPKSSLQGIAGSNSISYTDEIEEEDYDQYYLDEYDEEDEEEIRLSNRYQSYLEGVKYNVDSAIQTITKIYNTYTLFSTKLTQMYSTRLDNFAKAKAKEEAAKFTKEDLEKNFKTLLNYIQVSVKTAANFVYINDTHAKRKLENIEAEIKTLIAKIKEQSNLYEAYKAIVTSILLMRDSLKEVQGIIDKNGVWY | – | – | – | – | – | – | 34 | 34 | 110 | 670 |
| BBK32-C (C-terminal region of BBK32, residues 206-354) (domain or fragment) SNRYQSYLEGVKYNVDSAIQTITKIYNTYTLFSTKLTQMYSTRLDNFAKAKAKEEAAKFTKEDLEKNFKTLLNYIQVSVKTAANFVYINDTHAKRKLENIEAEIKTLIAKIKEQSNLYEAYKAIVTSILLMRDSLKEVQGIIDKNGVWY | – | – | – | – | – | – | 4.7 | 5.6 | 60 | 540 |
